How the values were obtained:
[1] = tested on: SK-MEL-2 tumors; assay: Xenograft tumor model with SK-MEL-2 cells carrying inducible shRNA; assay type: in vivo, mice
Source text: (FIG. 14A) A schematic illustration of animal study design to test the in vivo antitumor efficacy of NGLY1 suppression in melanoma. (FIG. 14B) The volume changes of xenograted SK-MEL-2 tumors with the induction of NT-shRNA (n=10) and NGLY1-shRNA645 (n=8) for 35 days. Tumors were harvested at the end of the study for Western blotting analysis. Bars: median tumor volumes at the indicated time points. […] (FIG. 14C) The expression of NGLY1, GADD153, IRF3, and GFP (ZsGreen) proteins in selected tumors was analyzed by Western blotting. (FIG. 14D) The enhanced expression of IL-29 in the tumor tissues with NGLY1 knockdown was detected by immunofluorescence staining.
Six-week-old female NOD.CB17-Prkdc^scid/J mice (The Jackson Laboratory, Bar Harbor, ME) were group-housed under conditions of constant photoperiod (12 hours light: 12 hours dark) with ad libitum access to sterilized food and water. Since the animal work in this study was completed using an animal study service provided by the translational core laboratory at the University of Maryland, Baltimore, all experimental procedures and protocols utilizing mice were approved by the Institutional Animal Care and Use Committee at the University of Maryland. […] Tumors were measured weekly using calipers and their volumes calculated using a standard formula: width^2×length×0.52. Body weights were measured weekly. […]

[2] = tested on: NGLY1; assay: NGLY1 expression in stable clones of melanoma cells (immunoblotting); assay type: cell-based, human; conditions: stable clones of MALME3M, UACC257 and SK-MEL-2 cells, 48-hour treatment of dox
Source text: These NGLY1-targeting shRNA sequences and a scrambled (non-targeting) shRNA sequence were cloned into doxycycline (dox)-inducible, polycistronic green fluorescence protein (GFP)-shRNA expression constructs (a pZIP inducible lentiviral vector, TransOMIC). Stable clones have been generated with the shRNA expression constructs in multiple human melanoma cell lines, including MALME3M, UACC257, SK-MEL-2, and COLO829 melanoma cells. […] Similar knockdown effects were found in the stable clones of other melanoma cells with this particular NGLY1 shRNA sequence. […] Similar to human normal fibroblasts, normal melanocytes (FIG. 5D) and keratinocytes appeared to well tolerate NGLY1 knockdown and show no sign of increased cell death. In addition, SK-MEL-2, MALME3M cells that express inducible NGLY1 shRNA presented significant apoptosis, compared to their scrambled RNA-expressing counterparts. The expression of exogenous human NGLY1 in melanoma cells attenuated NGLY1-targeting shRNA-induced apoptosis (FIG. 5E).
(§1) The knockdown of NGLY1 expression in melanoma cells was achieved by the transduction of pZIP-TRE3GS lentiviral expression vectors that carry two independent shRNA sequences (Below; TransOMIC Technologies, Huntsville, AL). […] The expression of the shRNA sequences and an open reading frame of the ZsGreen reporter is driven by the TRE3GS doxycycline-inducible promoter. […]

[3] = tested on: HepG2 liver cancer cells; assay: Cell morphology of HepG2 cells with NGLY1 knockdown; assay type: cell-based
[4] = tested on: U-251MG glioblastoma cells; assay: Cell morphology of U-251MG cells with NGLY1 knockdown; assay type: cell-based
[5] = tested on: UACC257 cells; assay: Cell morphology of UACC257 stable clones with dox-inducible shRNA; assay type: cell-based, human; conditions: 2 μM dox for 72 hours
Description: (FIG. 5A) The doxycycline (dox)-inducible pZIP-TRE3GS expression vector of non-targeting shRNA and NGLY1-targeting shRNA sequences. (FIG. 5B) The stable clones of UACC257 cells with dox-inducible shRNA. […] Cells with induced non-targeting (scramble)-shRNA maintain a morphology similar to the cells before dox induction. Cells were imaged after the treatment of 2 μM dox for 72 hours. BF: bright field. ZsGreen: green fluorescence protein. […] (FIG. 5E) The expression of human NGLY1-FLAG in SK-MEL-2 (SK) cells attenuates NGLY1-targeting shRNA-induced apoptosis. EV: empty vector, NGLY1-F: NGLY1-FLAG expression vector. […] All data were presented as mean±standard deviation (n=3, *P<0.05, […]). […] The cell viability curves of combinatorial treatment were plotted according to the doses of dox used in the treatment. Combination indexes were calculated using Calcusyn software. A combination index value <1 was considered synergistic. A combination index value <0.2 was considered highly synergistic. […]
as §1

B1: NGLY1-shRNA645: NGLY1-targeting shRNA sequence (SEQ ID NO: 5), dox-inducible lentiviral vector; used in the xenograft study (nucleic acid)
DNA: CCGAGUUUCAAAUAACAAUCAAUAGUGAAGCCACAGAUGUAUUGAUUGUUAUUUGAAACUCGAU
tumors that showed regression at the end of the study ([1]; after size increase during the initial 3-4 weeks of dox treatment): three out of eight
growth of melanoma tumors ([1]; dox-induced knockdown, 5 weeks): impeded
expression of NGLY1 [2]: largely suppressed
cell morphology [3]: morphology of apoptosis
cell morphology [4]: morphology of apoptosis
cell morphology [5]: morphological features of apoptosis

Source: patent US11779592B2, “Inhibition of NGLY1 for the treatment of cancer” (University of North Texas Health Science Center, priority 2017, dated 2023)
